The source of these data is the DeepSol protein solubility set.

The data set can be described thus: soluble on expression in E. coli; label from the status in PepcDB or PDB records.
With “MGSDKIHHHHHHMQSALWVSKTGLAAQDTKMTTIANNLANVNTTGFKRDRVAFNDLFYQVQRQPGGQVDELNQLPSGLQLGTGTRVAGTQKVFTTGDVHNTSQQLDLAIEGNGFFQVEEPNGDLAYTRDGQFYRSSEGMMVTSQGLPLVPNIVIPEDSTNITIATDGIVMATIAGDAEPQELGQITLINFTNPAGLEARGNNLYRETAASGVAVEGVAGDQALGGLRQGSLEGSNVNVVEEMVEMISTQRAYEMNAKVVSASDDMLKFLNQSV”, the “soluble on expression in E. coli” value is “not soluble”. Next, “MGSDKIHHHHHHMEELREAFEEGKPVILIDRNRENEADFVFPAQLITEDVVSFFVTYGKGLFCVTADEEDLLKRGFVKLSSNYGANYFVPVDWGTGTGISALERAETCRKLAEGRYFHEFRYPGHVTVIGGIGFQRRKGHTEASLEISELAGFSRHAVIVEILDEKGNSHNLDYVLKLSEKFSLPVLEMDDVWREFVKRKLLMKKKAEATLPTDFGVFKVVSFENHLDGKEHFAIVKEPLEDPVAVRIHSECVTGDVLSSLRCDCGSQLANFLRYMSAHGGILIYLRQEGRGIGLSNKIAAYSLQDKGLDTVEANRVLGFSEDERDYAPAAQILKALGIERVLLFTNNQRKTVGLEKYGIEVVETKRLYGRVTPHNRFYLSTKMKKLGHELEEIFREVNS”: “not soluble”.

For the sequence “MKKTGWGILGAVAAFTGYAYWSTKHLTVTDYEILSDKIPAEWDGATFVQLSDLHSASFGLYNNPLLSIVNELAPDAVFLTGDMIDGDESPFVTMAVVRKLAKEFPVFYVSGNHEGRSAFYEDFKADMEKHHVAVLENERYFLRKDGAAIMVAGVKDPRFVRDDWAEKELPKQVWEEEALKEALDEATANLSPDYFTILLAHRPEFWPLYQAYPVDLVLSGHAHGGQFRLPLTEGLFAPGQGFMPKWTAGLHSAGGKSLIVSRGLGNVTKLPRLFNDPEIIRITLKAKGDARENLEHHHHHH”, the “soluble on expression in E. coli” value was “not soluble”. For “MLRPYVAEWFRSTYGSFTEPQRQAIPLVKQGKSVLITSPTGTGKTLAAFLGVIDEILFLMENRWEEKGILAVYVSPLRALNNDIRRNLEEPLRGIEEKAREMGLEPPRVKVAVRTSDTTPYEKQKMVKDPPHILITTPESLAAALAAPKFRERLSTVKWVVLDEIHELASNKRGAHLMVSVERLEELVREAGGKPLRRIGLSATIAPLDVVANFLGGFDDEGRPREVHIVDARFAKPIDIKVITPDVDLLRDPPDKINEAIYRKIAELVKQHRTTLIFTNTRSATERVVHKLKQILVKEGIASEDQIEAHHSSLSRNLRLDVEERLKRGELKVVVSSTSLELGIDIGYIDLVILLSSPKSVSRLLQRVGRAGHRIRDVSKGRLIVVDRDDLVECSVLADCAMKKFIDRVRIPMKPLDVLAQHIVGMSIEKKWRLEDAYRVVKRAYNFKDLSFEEFMSVVRFLAGKHGLEGEGVYSKIWLDEEEGLFGRKKSARMIYLLNVGVIPDETKIRVYTRDGKYVGDLEEEFVEILVPGDVFVLGGRTYRFLKSEGLRVIVERADDARPTVPSWFSEMLPLSFDSALKVGEFRRVFSALASSNPRAAVEKLVKEYYLEERAAATIVEYILEQLGYIGVVPSDKLVLIEYFPYEDGWGIVFHTLFGRRVNDALSRAYAVALSRRIGLPVRVAVTDNGFMLTVSEAGKPDASLLEKLIRDVTPENIRGILEEAISRTELMKRRFKHVAARMFIVLRRYKGKEVSPERLQLNSQKLLEVFLEEMKDSPPIRETFREILEDYMDIGAAGKVLEWIRKGEIEIVIKGPLPYPSPMAHSIVVRGYSDVVLMEDRRKMLMILREKVLEYIRKGRAAPTWVGGDGKGRLLKEEQ”, the “soluble on expression in E. coli” value is reported as “soluble”. In the case of “MEKSIKIGFIGLGAMGKPMAINLLKEGVTVYAFDLMEANVAAVVAQGAQACENNQKVAAASDIIFTSLPNAGIVETVMNGPGGVLSACKAGTVIVDMSSVSPSSTLKMAKVAAEKGIDYVDAPVSGGTKGAEAGTLTIMVGASEAVFEKIQPVLSVIGKDIYHVGDTGAGDAVKIVNNLLLGCNMASLAEALVLGVKCGLKPETMQEIIGKSSGRSYAMEAKMEKFIMSGDFAGGFAMDLQHKDLGLALEAGKEGNVPLPMTAMATQIFEGGRAMGLGREDMSAVIKVWEQMTGVSVSGGQ”, the “soluble on expression in E. coli” value was “soluble”. Consider “MGSDKIHHHHHHMQFEPALQQGRLVKRYKRFLADIKLADGSEMTIHCPNTGSMRNCLFPGEAVWFSTSANPKRKYAYTWELMGTPNGGFIGIHSGSANALAEEAIHSGIIKELTGYDTLSREVKYGDENSRIDILLQGAQKPDCYIEVKSCTLLEDGQGFFPDAVSLRGQKHLRELMHMANLGHRAVLLFVVQHSEIFSVAPAAHIDHEYANLLKKATLSGVEVLAYRCEMSPTEIRLAQACPVRV”, for which the “soluble on expression in E. coli” value is “not soluble”.

Take “ILPQPDVRVNQVGYLPEGKKVATVVCNSTQPVKWQLKNAAGVVVLEGYTEPKGLDKDSQDYVHWLDFSDFATEGIGYYFELPTVNSPTNYSHPFDIRKDIYTQMKYDALAFFYHKRSGIPIEMPYAGGEQWTRPAGHIGIEPNKGDTNVPTWPQDDEYAGIPQKNYTKDVTGGWYDAGDHGKYVVNGGIAVWTLMNMYERAKIRGLDNWGPYRDGGMNIPEQNNGYPDILDEARWEIEFFKKMQVTEKEDPSIAGMVHHKIHDFRWTALGMLPHEDPQPRYLRPVSTAATLNFAATLAQSARLWKDYDPTFAADCLEKAEIAWQAALKHPDIYAEYTPGSGGPGGGPYNDDYVGDEFYWAACELYVTTGKDEYKNYLMNSPHYLEMPAKMGENGGANGEDNGLWGCFTWGTTQGLGTITLALVENGLPATDIQKARNNIAKAADRWLENIEEQGYRLPIKQAEDERGGYPWGSNSFILNQMIVMGYAYDFTGDSKYLDGMFDGISYLLGRNAMDQSYVTGYGERPLQNPHDRFWTPQTSKRFPAPPPGIISGGPNSRFEDPTINAAVKKDTPPQKCFIDHTDSWSTNEITVNWNAPFAWVTAYLDQYTD”: the “soluble on expression in E. coli” value was “soluble”. Next, “MSLRPQAPMTQTPMAQASTSTTTPQKIVLYMATTTSVKDTGLLDVLIPDFEKWAASRGYNIEVRYTAVGTGQALAMAARGDVDVVIVHAPSLEKQYLENGTLKCRDVIAYNFFIIVGPRDDPAGAKSLTATEAFRRIAEAKAPFVSRGDRSGTHLMELSLWRRAIGREPDPKNDTWYISAGAGMGQTLLLANEKSAYTLSDTGTWLRYRDKLPQLDVIVQAAPDLINIYSFSIVKLSNATRLMAQYMKTRGLEVIGNLTINGVSLFTPINKADPKAMEWIKTAIFGPSCVEREGHHHHHH”: “soluble”. Take “GGKDYPFARFNKTVQVPVYSEQEYQLYLHDDAWTKAETDHLFDLSRRFDLRFVVIHDRYDHQQFKKRSVEDLKERYYHICAKLANVRAVPGTD”: the “soluble on expression in E. coli” value is “soluble”. Next, “MSLIDIHNHILPNIDDGPTNETEMMDLLKQATTQGVTEIIVTSHHLHPRYTTPIEKVKSCLNHIESLEEVQALNLKFYYGQEIRITDQILNDIDRKVITGINDSRYLLIEFPSNEVPHYTDQLFFELQSKGFVPIIAHPERNKAISQNLDILYDLINKGALSQVTTASLAGISGKKIRKLAIQMIENNLTHFIGSDAHNTEIRPFLMKDLFNDKKLRDYYEDMNGFISNAKLVVDDKKIPKRMPQQDYKQKRWFGLEGHHHHHH”: “soluble”; “MSLSYEYFPGFYDRLMDSELYDEWLEFSADFIGDAPKKVLDLACGTAEFALRLSFSGHQVTGVDLSKEMVAVAKEKVAAAEIDLPIIEQDMSKLALKQTFDVVTCFCDSLNYLETEQALEATIQAVSAHLEPNGLFLFDVHSVFKIEQGFKDYSYGDSDEEISTIWNSFPGEHPHSIEHELTFYILGEDDTYNRVDELHKERTYPIATYENLLKKFGFTKIDIYADFSHEKPNKTSERIFFAARKEGHHHHHH”: “soluble”; “MTGILDSVNQRTQLVGQNRLELLTFRLMGRQRYGINVFKVKEVLQCPKLTSMPNLHPLVKGIAHIRGHTVSVIDLSLAIGGRPTTDIDKCFVVIAEFNRTIQAFLVSSVERIINMHWEAILPPPDGAGKAHYLTAVTNIDNELVEILDVEKILAEIAPVDETMDSTIGEEIAQAEQEKPIVR”: “not soluble”.

For the sequence “IGQVNYNIGFNMADSRSFVDKYPNKSKSLSTYYKDQELGAIWGYVTHGIAKSQSEMDEWTKDNKPSWGSGWGEGDIMFEDLNGDKVINEGANTVDDPGDRKIIGNSTPRFRFGLDLGVEWKGIDFSMFWQGVAKRDLWLDGPMFWGISGGEWQSTGLKEHLDYYRPENTTSVFGPNTNAYFPKMYMSKDMNQKVQTRYLQNGAYARLKNIQLGYTFPTQIINKLHMQKLRVYVSAENVLTITSLPSGFDPETTYSNYSDGNSGKTYPLQTTISFGLNATF”, the “soluble on expression in E. coli” value is reported as “not soluble”.
